Assay: melting temperature

Sequence	Tm (DSF (SYPRO))	also measured
TGGGLVQPGGSLRLSCAASGSISSINAMGWYRQAPGKQRELVAAITIRGNTVYGDSVKGRFTVSRDNAKNTVYLQMNSLKPEDTAVYYCNAKSTPSLYAAGYGVDYWGEGTLV		Tm (nanoDSF): 69.8 °C
EVQLQASGGGLVQAGSSLRLSCAASGLTTSTLYRMGWFRQAPGKEREFVGTITWSGGSTHYPDSLKGRFTISRDDAKNTGFLQMDSLKPEDTAIYYCAARTSAGIYDPTSPPAYDSWGQGTQVTVSS	70 °C	
QVKLEESGGGLVQAGGSLRLSCAASERTFSRYPVAWFRQAPGAEREFVAVISSTGTSTYYADSVKGRFTISRDNAKVTVYLQMNNLKREDTAVYFCAVNSQRTWLQDPNEYDYWGQGTQVTVSSGSEQKLISEEDLNHHHHHH	77.3 °C	
DVQLVESGGGSVQAGGSLRLSCAASGYIASINYLGWFRQAPGKEREGVAAVSPAGGTPYYADSVKGRFTVSLDNAENTVYLQMNSLKPEDTALYYCAAARQGWYIPLNSYGYNYWGQGTQVTVSS	74 °C	
ARVDOTPRTATKETGESLTINCVLTDTSYGLSSTYWYRKNPGSSNKEQISISGRYVESVNKRTKSFSLRIKDLTVADSATYICNAYIVRGVYGIIAKDVYGDGTALTVK		Tm (Circular dichroism): 64 °C
QVQLVESGGGLVQPGGSLRLSCAASGYTYISGWFRQAPGQGLEAVAAIRSSDGTTYYADSVKGRFTISRDNSKNTLYLQMNSLRAEDTAVYYCAATEVAGWPLDIGIYDYWGQGTLVTVSS		Tm (Circular dichroism): 63.4 °C
QVQLQESGGGSVQAGGSLKLSCAASGYIFSSCAMSWYRQAPGKERELVSSITSYGDAAYTDSAKGRFTISRDNAKNTLYLHLNNLKPEDTAVYFCAACPRNKYWGQGTQVTVSS	68.4 °C	Tm (nanoDSF): 63.6 °C
QVQLQESGGGSVQAGGSLKLSCDASTYTYGGKCMGWFRQAPGKEREFVAFIESDGRTSYADSVKGRFTISQDDAKNTVYLQMNSLKPEDTSMYYCKTAAGAFCGTRSYGFWGQGTQVTVSS	57.2 °C	Tm (nanoDSF): 60.8 °C
QVKLEESGGGLVQAGGSLRLSCAASERTFSRYPVAWFRQAPGAEREFVAVISSTGTSTYYADSVKGRFTISRDNAKVTVYLQMNNLKREDTAVYFCAVNSQRTRLLDPNEYDYWGQGTQVTVSSGSEQKLISEEDLNHHHHHH	80 °C	
EVQLVESGGGLVQPGGSLRLSCAASGSTFSSSSVGWYRQAPGKGLELVSAITSGGSTNTADSVKGRFTISRDNSKNTLYLQMNSLRAEDTAVYYCNVAGRNWVPISRYSPGPYWGQGTLVTVSS		Tm (Circular dichroism): 63.3 °C
GPHMAQVQLVESGGRLVQAGDSLRLSCAASGRTFSTSAMAWFRQAPGREREFVAAITWTVGNTILGDSVKGRFTISRDRAKNTVDLQMDNLEPEDTAVYYCSARSRGYVLSVLRSVDSYDYWGQGTQVTVS	53.6 °C	
QVQLVESGGGLVQPGGSLRLSCAASGDTYGSYWMGWFRQAPGQGLEAVAAINRGGGYTVYADSVKGRFTISRDNSKNTLYLQMNSLRAEDTAVYYCAASGVLGGLHEDWFNYWGQGTLVTVSSHHHHHH		Tm (Circular dichroism): 74 °C
QVQLQESGGGLVQPGGSLRLSCAASGFTISTTAMSWVRQAPGKGIEWVSTIFASGETTSYADFVQGRFITSRDNTKNTLYLQLNNLKTEDTAMYFCAAADDFGGLNNRYRGQGTQVTVSS	60.7 °C	
AWVDQTPRTATKETGESLTINCVLTGTSCSLYSTSWFRKNPGTTDWERISIGGRYVESVNKGAKSFSLRIKDLTVADSATYYCKAQTADTWITVVIDGYDWYDGAGTALTVK		Tm (Circular dichroism): 59 °C
QVQLVESGGGSVQAGGSLRLSCAASGSISSITYLGWFRQAPGKEREGVAALSTSSGTTYYADSVKGRFTVSLDNAENTVYLQMNSLKPEDTALYYCAAASSGSSSPLSSSSYTYWGQGTQVTVSS	95 °C	
TRVDQTPRTATKETGESLTINCVLTGTSCSLYSTSWFRKNPGTTDWERISIGGRYVESVNKGAKSFSLRIKDLTVADSATYYCKAQKHCGYDWYDGAGTALTVK		Tm (Circular dichroism): 72 °C
QVKLEESGGGLVQAGGSLRLSCAASERTFSRYPVAWFRQAPGAEREFVAVISSTGTSTYYADSVKGRFTISRDNAKVTVYLQMNNLKREDTAVYFCAVNSQRRRLQDPNEYDYWGQGTQVTVSSGSEQKLISEEDLNHHHHHH	79.1 °C	
KVQLVESGGGLVQAGGSLRLACTASGSAFSINTMGWYRRAPGKQRELVASITSSGSTTYADSVKGRFTISRDSAKNTVFLQMNSVKPEDTSVYYCNGEIQRTDYNFWGQGTQVTVSS	59.6 °C	Tm (nanoDSF): 63.5 °C
EVQLQASGGGLVQPGGSLRLACVASGFTLEYSAIGWFRQAPGKEREAVSRIRNRDGRAIYADSVKDRFTISRDNAKSTVYLQMDSLKPEDTATYYCGRHIGVRSSWALPSEYDYWGQGTQYIYSS	60 °C	
QVKLEESGGGLVQAGGSLRLSCAASERTFSRYPVAWFRQAPGAEREFVAVISSTGTSTYYADSVKGRFTISRDNAKVTVYLQMNNLKREDTAVYFCAVNSQRTRLYDPNEYDYWGQGTQVTVSSGSEQKLISEEDLNHHHHHH	79 °C	
QVKLEESGGGLVQAGGSLRLSCAASERTFSRYPVAWFRQAPGAEREFVAVISSTGTSTYYADSVKGRFTISRDNAKVTVYLQMNNLKREDTAVYFCAVNSKRTRLQDPNEYDYWGQGTQVTVSSGSEQKLISEEDLNHHHHHH	81.4 °C	
QVKLEESGGGLVQAGGSLRLSCAASERTFSRYPVAWFRQAPGAEREFVAVISSTGTSTYYADSVKGRFTISRDNAKVTVYLQMNNLKREDTAVYFCAVNSKRMRLQDPNEYDYWGQGTQVTVSSGSEQKLISEEDLNHHHHHH	81.3 °C	
QVQLQESGGGSVQAGGSLRLSCESSGMTFSVYNLGLRQAPGQECELSTITRDGSTDYADSMKGRFTISRDNAKNTMYLQMTSLKPDDTAVYYCAAGVGVVDCTEGQGTQVTVSS	51.8 °C	
TGGGWVQAGGSLRLSCAASGRAASGNAMAWFRQAPGKEREFVALISWSGGRPYYANSVKGRFAISRDNATNTVYLQMNRLKPEDTAVYYCAASPTIAILPTPYDYWGQGTQV		Tm (nanoDSF): 75.3 °C

Sequence	Tm (DSF (SYPRO))	also measured
TGGALVQAGGSLRLSCAASETSSVSLSWMGWYRQAPGKERELVAGINRDRPKYKESVKGRFTISRDNAQNTVYLQMNSLKPEDTAVYYCNTVPPRGDYWGQGTQV		Tm (nanoDSF): 65.7 °C
QVQLVESGGGLVQAGGSLRLSCAASGYAYTYIYMGWFRQAPGKEREGVAAMDSGGGGTLYADSVKGRFTISRDKGKNTVYLQMDSLKPEDTATYYCAAGGYELRDRTYGQWGQGTQVTVSSAAALEHHHHHH		Tm (Other): 64.2 °C
QVQLVESGGGLVQAGGSLRLSCAVSGLGAHRVGWFRRAPGKEREFVAAIGANGGNTNYLDSVKGRFTISRDNAKNTIYLQMNSLKPQDTAVYYCAARDIETAEYTYWGQGTQVTVSS	72.8 °C	
QVKLEESGGGLVQAGGSLRLSCAASERTFSRYPVAWFRQAPGAEREFVAVISSTGRSTYYADSVKGRFTISRDNAKVTVYLQMNNLKREDTAVYFCAVNSKRRRLQDPNEYDYWGQGTQVTVSSGSEQKLISEEDLNHHHHHH	81.6 °C	
DVQLQASGGGLVQAGGSLRLSCAASGSTFSIKHHGWYRRAPGNQREWVAGINSENITNVAGAVKGRFTISRDNAKNTVYLQMNSLKVEDTAVYFCYAQDNDYRFLHRFWGQGTQVTVSLEPKTPKPQ	52 °C	
EVQLVESGGGLVQPGGSLRLSCAASGSTFSSSSVGWYRQAPGKQRELVSAITSGGSTNTADSVKGRFTISRDNSKNTLYLQMNSLRAEDTAVYYCNVAGRNWVPISRYSPGPYWGQGTLVTVSS		Tm (Circular dichroism): 60.9 °C
QVQLQESGGGSVQAGGSLRLSCAASGWTYSTATMGWYRQAPGKERELVSSIFSDENTYYKDSVKGRFTISRDAAKNTVYLQMNSLKPEDTAMYYCYIRPTTSLANWRWGQGTQVTVSS	59.7 °C	Tm (nanoDSF): 63.9 °C
QVQLVESGGGLVQAGGSLRLSCAASGRTYTMGWFRQAPGKEREFVAAMRWSDTDYADSLKGRFTISRDNANNAMYLQMNSLGPEDTAVYYCAAGEAWLARSTHHYDYWGQGTQVTVSS		Tm (Circular dichroism): 72.3 °C
DVQLQESGGGLVQPGGSLRLSCAASGFLFSDTYMTWARQAPGKGLEWLGGISKDGSGTLYEDSVEGRFTISRDNAKNTLYLQMNSLKSEDTALYYCSTGALLPTRPQGQGTQVTVSS		Tm (Circular dichroism): 51.5 °C
QVKLEESGGGLVQAGGSLRLSCAASERTFSRYPVAWFRQAPGAEREFVAVISSTGTSTYYADSVKGRFTISRDNAKVTVYLQMNNLKREDTAVYFCAVNSQRKRLQDPNEYDYWGQGTQVTVSSGSEQKLISEEDLNHHHHHH	78.5 °C	
QLQLVESGGGLVQAGGSLRLSCAASGRTFSSATMGWFRQAPGKEREFVAAISWSGLSRYYADSVKGRFTISRDNAENTVYLQMNSLKTEDTAVYYCAADSWGCSGLGCYDARQYDVWGQGTQVTVSS		Tm (Circular dichroism): 98.2 °C
QVQLQESGGGSVQAGGSLRLSCAASGYTYTMGWFRQAPGKEREGVTIIYTGYDNIVYADSVKGRFTISRDNAKNTVYLQMNNLKPEDTAMYHCAAATRGLPRSYFDPGWYDSWGQGTQVTVSS	62.5 °C	Tm (nanoDSF): 70 °C
TRVDQTPRTATKETGESLTIICVLTDTSCVLHSTSWFRKNPGTTDWERMSIGGRYVESVNKGAKSFSLRIKDLTVADSATYYCKAQSHEYMEVCPYDWYDGAGTVLTVK		Tm (Circular dichroism): 55 °C
EVQLQASGGGLVQPGGSLRLSCTASGSIFSINAMGWYRQTPRKERELVAAISEGGSTKYGDSVKGRFTISRDFAKNTQMVYLQMNSLKAEDTAVYYCKAQTEGPIADWGTSQYEYWGQGTQVTVSS	51 °C	
QVQLQESGGGSVQAGGSLRLSCAVSGYTYSSYSIGWFRQAPGKEREGVAAINSGGSTNYAGSVEGRFTISQDNAKNTVSLLMNSLKPEDTATYYCAVGAFFTLRPTLYNYKGQGTQVTVSS	48.3 °C	Tm (nanoDSF): 53.6 °C
QVKLEESGGGLVQAGGSLRLSCAASERTFSRYPVAWFRQAPGAEREFVAVISSTGTSTYYADSVKGRFTISRDNAKVTVYLQMNNLKREDTAVYFCAVNSKRKRLQDPNEYDYWGQGTQVTVSSGSEQKLISEEDLNHHHHHH	81.5 °C	
QVQLQESGGGSVQAGGSLRLPCVASGYIYSPTKMGWFRQAPGKERELVSSITRDGRPYYSDSVKGRFTISQDNAKNTVYLQMNSLKPEDTAMYYCFADVRLSAVGGIKTYWDQGTQVTVSS	58.6 °C	Tm (nanoDSF): 63.3 °C
QVKLEESGGGLVQAGGSLRLSCAASERTFSRYPVAWFRQAPGAEREFVAVISSTGTSTYYADSVKGRFTISRDNAKVTVYLQMNNLKREDTAVYFCAVNSQRTRLQDPREYDYWGQGTQVTVSSGSEQKLISEEDLNHHHHHH	77.6 °C	
ARVEQTPRTATKETGESLTINCVLTGGSCSLYSTSWFRKNPGTTDWERISIGGRYVESVNKGAKSFSLRIKDLTVADSATYYCKAQSCMDSRTVVLDWYEGSGTVLTVK		Tm (Circular dichroism): 76 °C
QVKLEESGGGLVQAGGSLRLSCAASERTFSRYPVAWFRQAPGAEREFVAVISSTGRSTYYADSVKGRFTISRDNAKVTVYLQMNNLKREDTAVYFCAVNSQRMRLQDPNEYDYWGQGTQVTVSSGSEQKLISEEDLNHHHHHH	77 °C	
QVKLEESGGGLVQAGGSLRLSCAASERTFSRYPVAWFRQAPGAEREFVAVISSTGTSKYYADSVKGRFTISRDNAKVTVYLQMNNLKREDTAVYFCAVNSQRTRLQDPNEYDYWGQGTQVTVSSGSEQKLISEEDLNHHHHHH	76.9 °C	
QVKLEESGGGLVQAGGSLRLSCAASERTFSRYPVAWFRQAPGAEREFVAVISSTGTSTYYADSVKGRFTISRDNAKVTVYLQMNNLKREDTAVYFCAVNSQRWRLQDPNEYDYWGQGTQVTVSSGSEQKLISEEDLNHHHHHH	77.5 °C	
QVKLEESGGGLVQAGGSLRLSCAASERTFSRYPVAWFRQAPGAEREFVAVISSTGRSTYYADSVKGRFTISRDNAKVTVYLQMNNLKREDTAVYFCAVNSKRTRLQDPNEYDYWGQGTQVTVSSGSEQKLISEEDLNHHHHHH	81.4 °C	
